Laboratory results from patent publication US12679878B2, “CRF2 receptor agonists and their use in therapy” (SANOFI, priority 2020, dated 2026).
Starred links: 1 amine or outer side, 2 acyl side, 3 side chain; linkers in the order of their positions; H or OH if unused. Non-standard residues stand in square brackets, D forms with d. Groups on a side chain read outwards from the residue. No end group written: not given here. *: point of attachment. C18 diacid = O=C(O)CCCCCCCCCCCCCCCCC(=O)*; γGlu = O=C(O)[C@H](CCC(=O)[*:2])N[*:1]; AEEA = NCCOCCOCC(=O)O; Aib = CC(C)(N)C(=O)O

Target: human corticotropin-releasing factor 2α (CRF2 α receptor) (human), Q13324
Sequence (Q13324 20-411): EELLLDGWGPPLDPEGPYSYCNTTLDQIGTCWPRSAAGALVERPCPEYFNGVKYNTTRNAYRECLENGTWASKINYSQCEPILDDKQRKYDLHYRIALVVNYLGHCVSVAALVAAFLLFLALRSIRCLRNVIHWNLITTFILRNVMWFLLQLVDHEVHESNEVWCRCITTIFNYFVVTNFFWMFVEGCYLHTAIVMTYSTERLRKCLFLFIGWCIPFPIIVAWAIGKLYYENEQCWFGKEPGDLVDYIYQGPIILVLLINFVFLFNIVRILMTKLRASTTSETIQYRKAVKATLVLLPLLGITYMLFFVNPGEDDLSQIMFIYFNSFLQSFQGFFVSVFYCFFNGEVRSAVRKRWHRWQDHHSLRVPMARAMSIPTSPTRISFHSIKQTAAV
Experiment: cell-based or functional assay

| EC50 [nM], 0% HSA | Binder |
| --- | --- |
| 13.4 nM | IVLSLDVPIGLK([AEEA-AEEA-γGlu-C18 diacid])QILLEQERQKKQRQQAETN[Aib]QILAQV-NH2 (N-terminus assumed; SMILES CC[C@H](C)[C@H](N)C(=O)N[C@H](C(=O)N[C@@H](CC(C)C)C(=O)N[C@@H](CO)C(=O)N[C@@H](CC(C)C)C(=O)N[C@@H](CC(=O)O)C(=O)N[C@H](C(=O)N1CCC[C@H]1C(=O)N[C@H](C(=O)NCC(=O)N[C@@H](CC(C)C)C(=O)N[C@@H](CCCCNC(=O)COCCOCCNC(=O)COCCOCCNC(=O)CC[C@H](NC(=O)CCCCCCCCCCCCCCCCC(=O)O)C(=O)O)C(=O)N[C@@H](CCC(N)=O)C(=O)N[C@H](C(=O)N[C@@H](CC(C)C)C(=O)N[C@@H](CC(C)C)C(=O)N[C@@H](CCC(=O)O)C(=O)N[C@@H](CCC(N)=O)C(=O)N[C@@H](CCC(=O)O)C(=O)N[C@@H](CCCNC(=N)N)C(=O)N[C@@H](CCC(N)=O)C(=O)N[C@@H](CCCCN)C(=O)N[C@@H](CCCCN)C(=O)N[C@@H](CCC(N)=O)C(=O)N[C@@H](CCCNC(=N)N)C(=O)N[C@@H](CCC(N)=O)C(=O)N[C@@H](CCC(N)=O)C(=O)N[C@@H](C)C(=O)N[C@@H](CCC(=O)O)C(=O)N[C@H](C(=O)N[C@@H](CC(N)=O)C(=O)NC(C)(C)C(=O)N[C@@H](CCC(N)=O)C(=O)N[C@H](C(=O)N[C@@H](CC(C)C)C(=O)N[C@@H](C)C(=O)N[C@@H](CCC(N)=O)C(=O)N[C@H](C(N)=O)C(C)C)[C@@H](C)CC)[C@@H](C)O)[C@@H](C)CC)[C@@H](C)CC)C(C)C)C(C)C) [SEQ ID NO: 76] |
| 0.33 nM | IVLSLDVPIKLK([AEEA-AEEA-γGlu-C18 diacid])QILLKQERQKKQRQKAETNKQILAQV-NH2 (N-terminus assumed; SMILES CC[C@H](C)[C@H](N)C(=O)N[C@H](C(=O)N[C@@H](CC(C)C)C(=O)N[C@@H](CO)C(=O)N[C@@H](CC(C)C)C(=O)N[C@@H](CC(=O)O)C(=O)N[C@H](C(=O)N1CCC[C@H]1C(=O)N[C@H](C(=O)N[C@@H](CCCCN)C(=O)N[C@@H](CC(C)C)C(=O)N[C@@H](CCCCNC(=O)COCCOCCNC(=O)COCCOCCNC(=O)CC[C@H](NC(=O)CCCCCCCCCCCCCCCCC(=O)O)C(=O)O)C(=O)N[C@@H](CCC(N)=O)C(=O)N[C@H](C(=O)N[C@@H](CC(C)C)C(=O)N[C@@H](CC(C)C)C(=O)N[C@@H](CCCCN)C(=O)N[C@@H](CCC(N)=O)C(=O)N[C@@H](CCC(=O)O)C(=O)N[C@@H](CCCNC(=N)N)C(=O)N[C@@H](CCC(N)=O)C(=O)N[C@@H](CCCCN)C(=O)N[C@@H](CCCCN)C(=O)N[C@@H](CCC(N)=O)C(=O)N[C@@H](CCCNC(=N)N)C(=O)N[C@@H](CCC(N)=O)C(=O)N[C@@H](CCCCN)C(=O)N[C@@H](C)C(=O)N[C@@H](CCC(=O)O)C(=O)N[C@H](C(=O)N[C@@H](CC(N)=O)C(=O)N[C@@H](CCCCN)C(=O)N[C@@H](CCC(N)=O)C(=O)N[C@H](C(=O)N[C@@H](CC(C)C)C(=O)N[C@@H](C)C(=O)N[C@@H](CCC(N)=O)C(=O)N[C@H](C(N)=O)C(C)C)[C@@H](C)CC)[C@@H](C)O)[C@@H](C)CC)[C@@H](C)CC)C(C)C)C(C)C) [SEQ ID NO: 77] |
